Reference: patent publication US20240010701A1 (ALX ONCOLOGY, published 2024)

T1: cynomolgus Nectin-4 extracellular domain (ECD) with C-terminal His6 (cynomolgus, UniProt Q96NY8 32-349 (human entry))
T1 construct: also called Cyno Nectin-4-ECD; cynomolgus nectin-4-ECD
T1 chain: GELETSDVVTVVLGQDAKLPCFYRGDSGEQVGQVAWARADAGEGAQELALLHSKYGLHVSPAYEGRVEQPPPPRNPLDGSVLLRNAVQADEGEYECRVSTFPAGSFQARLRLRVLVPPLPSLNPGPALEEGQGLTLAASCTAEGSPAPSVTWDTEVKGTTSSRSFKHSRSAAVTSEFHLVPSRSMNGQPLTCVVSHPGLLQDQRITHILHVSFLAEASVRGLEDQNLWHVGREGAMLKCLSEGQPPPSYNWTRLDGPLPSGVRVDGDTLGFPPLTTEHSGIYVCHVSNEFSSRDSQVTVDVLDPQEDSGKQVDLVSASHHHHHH

T2: human Nectin-4 extracellular domain (ECD) with C-terminal His6 (human, UniProt Q96NY8 32-349)
T2 construct: also called human Nectin-4-ECD; human nectin-4 ECD
T2 sequence: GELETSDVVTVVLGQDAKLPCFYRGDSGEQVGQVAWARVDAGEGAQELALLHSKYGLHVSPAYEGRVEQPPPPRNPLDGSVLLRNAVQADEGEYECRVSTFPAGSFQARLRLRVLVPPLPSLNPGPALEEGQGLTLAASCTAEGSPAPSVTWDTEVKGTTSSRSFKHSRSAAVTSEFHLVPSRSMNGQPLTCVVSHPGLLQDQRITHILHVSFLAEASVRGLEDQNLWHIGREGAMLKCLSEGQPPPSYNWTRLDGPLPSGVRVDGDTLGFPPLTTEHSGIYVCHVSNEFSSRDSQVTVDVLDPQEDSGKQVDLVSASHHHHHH

T3: hFcγIIa-H131 (human, UniProt P12318 34-217)
T3 construct: extracellular domain; H at position 131 of the H/R131 polymorphism; also called hFcγRIIa (CD32a) H131
T3 sequence (looked up): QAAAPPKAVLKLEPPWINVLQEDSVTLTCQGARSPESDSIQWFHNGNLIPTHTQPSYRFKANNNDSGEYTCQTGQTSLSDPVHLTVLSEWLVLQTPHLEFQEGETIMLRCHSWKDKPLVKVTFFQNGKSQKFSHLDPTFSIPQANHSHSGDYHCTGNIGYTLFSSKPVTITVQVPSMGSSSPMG

T4: hFcγIIa-R131 (human, UniProt P12318 36-218)
T4 construct: extracellular domain; Position 131 is the customary mature-protein numbering, not the precursor numbering of the database entry; also called hFcγRIIa (CD32a) R131
T4 sequence (looked up): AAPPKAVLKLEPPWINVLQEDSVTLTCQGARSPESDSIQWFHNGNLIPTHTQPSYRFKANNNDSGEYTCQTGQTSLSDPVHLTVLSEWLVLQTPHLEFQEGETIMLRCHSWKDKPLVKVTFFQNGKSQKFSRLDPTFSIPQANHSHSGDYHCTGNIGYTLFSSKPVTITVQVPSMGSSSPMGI


What was measured:
[1] = target: T1, cynomolgus Nectin-4 extracellular …; assay: SPR (Biacore 8K), DRUG B captured on Protein A chip, nectin-4-ECD as analyte, single-cycle kinetics, 1:1 fit, 25° C; 25° C., cynomolgus nectin-4-ECD
[2] = target: T5, hFcγIa (human, UniProt P12314 16-292); assay: SPR (Biacore 8K), 25° C, antibody captured on nectin-4-coated chip, receptor ECD as analyte, single-cycle kinetics, 1:1 fit
T5 construct: extracellular domain; also called hFcγRI; CD64
Description: (§1) The data was processed and analyzed with Biacore 8K Evaluation Software Version 3.0.12.15655 (Cytiva, Global Life Sciences Solutions USA LLC, Marlborough, MA). Reference responses from flow cell 1 were subtracted from the active responses from flow cell 2 to obtain the subtracted data (2-1). The responses from the nearest buffer blank injection were then subtracted from the reference subtracted data (2-1) to yield double-referenced data. For hFcγRI, these double-reference data were fit to a simple 1:1 Langmuir binding model with mass transport to determine the apparent association (ka) and dissociation rate constants (kd). The apparent equilibrium dissociation constant or affinity constant was then calculated based on their ratio as (KD=kd/ka). Binding affinity KD values for all the other hFcγR interactions (hFcγIIa-H131, hFcγIIa-R131, hFcγIIIa, and FcγIIIaV158F) were analyzed using a “steady state” (or “equilibrium binding”) method due to their fast on rates and fast off rates.

[3] = target: T2, human Nectin-4 extracellular domain …; assay: SPR (Biacore 8K), DRUG B captured on Protein A chip, nectin-4-ECD as analyte, single-cycle kinetics, 1:1 fit, 37° C; 37° C., human nectin-4-ECD
Procedure: (§2) Kinetic injection method used was “single cycle kinetics” (also known as “kinetic titration”) (Karlsson et al. (2006) Analytical Biochemistry. 349(1):136-147).
(§3) The interactions of DRUG B, i.e., an anti-Nectin-4 monoclonal antibody, with the extracellular domain (ECD) of human nectin-4 were analyzed by flowing nectin-4-ECD over DRUG B captured (200-400 RUs) on Biacore Series S Sensor Chip Protein A. DRUG B, at ˜1 μg/mL concentration was captured in flow cell 2 of each channel at flow rate 10 μL/min for 60 seconds (s) contact time while buffer was used for Flow cell 1 respectively. The human nectin-4-ECD analytes were prepared as a 5-membered 3-fold dilution series with top nominal concentration of 300 nM, and each analyte series was injected in order of ascending concentration using a single-cycle kinetics method. Association and dissociation times were monitored for 120s and 1800s, respectively, at 30 μL/min flow rate. The surfaces were regenerated with 75 mM phosphoric acid at pH 1.6 using two pulses of 15s at 30 μL/min flow rate.
(§4) To analyze the data, the following processing steps were applied. Reference responses from flow cell 1 (reference surface) were subtracted from the active responses from flow cell 2 (reaction surface) to obtain the subtracted data (2-1). […]

[4] = target: T3, hFcγIIa-H131; assay: SPR (Biacore 8K), 25° C, antibody captured on nectin-4-coated chip, receptor ECD as analyte, steady-state analysis
Description: as §1

[5] = target: T4, hFcγIIa-R131; assay: as above
Description: as §1

[6] = target: T1, cynomolgus Nectin-4 extracellular …; assay: SPR (Biacore 8K), DRUG B captured on Protein A chip, nectin-4-ECD as analyte, single-cycle kinetics, 1:1 fit, 37° C; 37° C., cynomolgus nectin-4-ECD
[7] = target: T2, human Nectin-4 extracellular domain …; assay: SPR (Biacore 8K), DRUG B captured on Protein A chip, nectin-4-ECD as analyte, single-cycle kinetics, 1:1 fit; temperature dropped in the text, 25° C by context; 25° C. (by context; temperature dropped in the text), human nectin-4-ECD
Procedure: as §2, §3, §4

[8] = target: T6, hFcRn ECD protein (human, UniProt P55899 24-297; P61769 21-119); assay: SPR (Biacore 8K), 25° C, PBS pH 5.8, antibody captured on nectin-4-coated chip, hFcRn ECD as analyte, steady-state analysis
T6 construct: extracellular domain; also called human FcRn; neonatal Fc receptor
Procedure: (§5) All experiments were performed at 25° C. using a Biacore 8K equipped with S-type sensor chips and the kinetics data analyses were done using the Biacore Insight Evaluation Software. The running buffer was PBS pH 5.8 with 0.01% Tween-20 for hFcRn interactions and the running buffer for capture was HBS-EP+. Analyte hFcRn ECD protein was used at its nominal concentrations. A “single cycle kinetics” injection mode was used.
(§6) The interactions of DRUG B and DRUG C with hFcRn were analyzed by flowing the hFcRn ECD protein over DRUG B or DRUG C captured on a nectin-4-coated CMS chip. Up to 2400 RU of human nectin-4 ECD were immobilized on both flow cells (1 and 2) of a CMS chip using amine chemistry following Cytiva amine coupling kit instructions. DRUG B or DRUG C were captured on flow cell 2 of each channel for 120 seconds at 10 μL/min at […] in HBS-EP+(100-200 RUs) in a surface preparation method. The hFcRn run was done in PBS pH 5.8 with 0.01% Tween-20. […] Association and dissociation times were monitored for 120s and 600s, respectively. […]
(§7) The data was processed and analyzed with Biacore 8K Evaluation Software Version 3.0.12.15655 (Cytiva, Global Life Sciences Solutions USA LLC, Marlborough, MA). […] Binding affinity KD values were analyzed using a “steady state” (or “equilibrium binding”) method due to their fast on rates and fast off rates.

[9] = target: T5, hFcγIa; assay: SPR (Biacore 8K), 25° C, ADC captured on nectin-4-coated chip, receptor ECD as analyte, single-cycle kinetics, 1:1 fit
Description: as §1

[10] = target: T3, hFcγIIa-H131; assay: SPR (Biacore 8K), 25° C, ADC captured on nectin-4-coated chip, receptor ECD as analyte, steady-state analysis
Description: as §1

[11] = target: T4, hFcγIIa-R131; assay: as above
Description: as §1

[12] = target: T2, human Nectin-4 extracellular domain …; assay: SPR, capture on chip with immobilized human nectin-4 ECD (FcγR runs)
[13] = target: T6, hFcRn ECD protein; assay: SPR (Biacore 8K), 25° C, PBS pH 5.8, ADC captured on nectin-4-coated chip, hFcRn ECD as analyte, steady-state analysis
Procedure: as §5, §6, §7

T5 sequence (P12314 16-292): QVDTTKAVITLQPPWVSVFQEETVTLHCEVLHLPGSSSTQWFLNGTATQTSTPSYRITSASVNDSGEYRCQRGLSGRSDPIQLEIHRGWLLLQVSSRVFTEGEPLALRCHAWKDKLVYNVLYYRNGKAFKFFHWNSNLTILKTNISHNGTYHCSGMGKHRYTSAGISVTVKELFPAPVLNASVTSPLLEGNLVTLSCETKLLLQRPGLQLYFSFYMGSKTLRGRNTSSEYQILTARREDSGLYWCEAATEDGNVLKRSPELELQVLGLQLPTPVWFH

Kd [1] [nM] | Kd [2] [nM] | Kd [3] [nM] | Kd [4] [nM] | Kd [5] [nM] | Kd [6] [nM] | Kd [7] [nM] | Kd [8] [nM] | Kd [9] [nM] | Kd [10] [nM] | Kd [11] [nM] | binding result [12] | Kd [13] [nM] | Binder
~22.6 | 0.056 | ~36.3 | 772 | 783 | ~50.7 | ~14.5 | 767 | – | – | – | – | – | DRUG B (enfortumab similar antibody that specifically binds human nectin-4) (antibody, human IgG1, kappa, Expressed in Expi293F cells, about 99% monomer; also called enfortumab similar Ab; Enfortumab similar mAb) heavy: not shown light: DIQMTQSPSSVSASVGDRVTITCRASQGISGWLAWYQQKPGKAPKFLIYAASTLQSGVPSRFSGSGSGTDFTLTISSLQPEDFATYYCQQANSFPPTFGGGTKVEIKRTVAAPSVFIFPPSDEQLKSGTASVVCLLNNFYPREAKVQWKVDNALQSGNSQESVTEQDSKDSTYSLSSTLTLSKADYEKHKVYACEVTHQGLSSPVTKSFNRGEC
– | – | – | – | – | – | – | – | 0.091 | 921 | 846 | binds | 812 | DRUG C (enfortumab vedotin similar antibody-drug conjugate) (antibody, human IgG1, kappa, MC-Val-Cit-PAB-MMAE linker-payload conjugated via interchain cysteines of the antibody; average drug-to-antibody ratio 3.85:1, DRUG B conjugated to MC-Val-Cit-PAB-MMAE; also called enfortumab vedotin similar ADC; copies: 2 + 2) heavy: not shown light: DIQMTQSPSSVSASVGDRVTITCRASQGISGWLAWYQQKPGKAPKFLIYAASTLQSGVPSRFSGSGSGTDFTLTISSLQPEDFATYYCQQANSFPPTFGGGTKVEIKRTVAAPSVFIFPPSDEQLKSGTASVVCLLNNFYPREAKVQWKVDNALQSGNSQESVTEQDSKDSTYSLSSTLTLSKADYEKHKVYACEVTHQGLSSPVTKSFNRGEC
